From publication PMC10760953, “Somatic estrogen receptor α mutations that induce dimerization promote receptor activity and breast cancer proliferation” (The Journal of Clinical Investigation, 2024) come the findings set out here.

The target of series [1] is S463P ERα ligand-binding domain (LBD). The experiment in a line: FRET or BRET; time-resolved FRET of dimer exchange: 2 nM ER-LBD labelled at C417 (biotin, streptavidin-terbium) mixed with 10 nM ER-LBD labelled at C530 (fluorescein); apo or exposed to 1 μM E2 for 30 minutes before mixing; signal followed with time. A general note: In BRET a luciferase serves as donor, and the signal depends on an acceptor being close.

Series [2] deals with the molecule itself. The experiment in a line: cell-based or functional assay.
The target of series [3] is T1, S463P ERα ligand-binding domain (LBD).
T1 chain: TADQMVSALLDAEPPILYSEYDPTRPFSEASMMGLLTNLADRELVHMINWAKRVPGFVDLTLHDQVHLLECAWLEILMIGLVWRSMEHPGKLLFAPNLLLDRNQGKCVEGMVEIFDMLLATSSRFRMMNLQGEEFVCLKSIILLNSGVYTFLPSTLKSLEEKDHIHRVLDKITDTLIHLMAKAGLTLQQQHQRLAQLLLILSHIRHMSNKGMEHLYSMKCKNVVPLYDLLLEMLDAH
The experiment in a line: tr-FRET dimer exchange. The settings on record: chain shown with the change.

As for “S463P ERα ligand-binding domain (LBD) (domain or fragment)”, in series [1], the fold slower dissociation of dimers into monomers against WT ER, absence of E2 came out at 7.6 times.

B1: HA-tagged ERα S463P (receptor, UniProt P03372 1-595, looked up)
chain: MTMTLHTKASGMALLHQIQGNELEPLNRPQLKIPLERPLGEVYLDSSKPAVYNYPEGAAYEFNAAAAANAQVYGQTGLPYGPGSEAAAFGSNGLGGFPPLNSVSPSPLMLLHPPPQLSPFLQPHGQQVPYYLENEPSGYTVREAGPPAFYRPNSDNRRQGGRERLASTNDKGSMAMESAKETRYCAVCNDYASGYHYGVWSCEGCKAFFKRSIQGHNDYMCPATNQCTIDKNRRKSCQACRLRKCYEVGMMKGGIRKDRRGGRMLKHKRQRDDGEGRGEVGSAGDMRAANLWPSPLMIKRSKKNSLALSLTADQMVSALLDAEPPILYSEYDPTRPFSEASMMGLLTNLADRELVHMINWAKRVPGFVDLTLHDQVHLLECAWLEILMIGLVWRSMEHPGKLLFAPNLLLDRNQGKCVEGMVEIFDMLLATSSRFRMMNLQGEEFVCLKSIILLNSGVYTFLPSTLKSLEEKDHIHRVLDKITDTLIHLMAKAGLTLQQQHQRLAQLLLILSHIRHMSNKGMEHLYSMKCKNVVPLYDLLLEMLDAHRLHAPTSRGGASVEETDQSHLATAGSTSSHSLQKYYITGEAEGFPATV
Take B1: in series [2], the “estrogen-independent expression of GREB1 (RT-qPCR, fold change relative to WT), SKBR3 cells” value worked out at 2.9 fold and the “estrogen-independent expression of PGR (RT-qPCR, fold change relative to WT), SKBR3 cells” value came out at 7.1 fold.

B2: HA-ERα A430K/S463P double mutant (receptor, UniProt P03372 1-595, looked up)
chain: MTMTLHTKASGMALLHQIQGNELEPLNRPQLKIPLERPLGEVYLDSSKPAVYNYPEGAAYEFNAAAAANAQVYGQTGLPYGPGSEAAAFGSNGLGGFPPLNSVSPSPLMLLHPPPQLSPFLQPHGQQVPYYLENEPSGYTVREAGPPAFYRPNSDNRRQGGRERLASTNDKGSMAMESAKETRYCAVCNDYASGYHYGVWSCEGCKAFFKRSIQGHNDYMCPATNQCTIDKNRRKSCQACRLRKCYEVGMMKGGIRKDRRGGRMLKHKRQRDDGEGRGEVGSAGDMRAANLWPSPLMIKRSKKNSLALSLTADQMVSALLDAEPPILYSEYDPTRPFSEASMMGLLTNLADRELVHMINWAKRVPGFVDLTLHDQVHLLECAWLEILMIGLVWRSMEHPGKLLFAPNLLLDRNQGKCVEGMVEIFDMLLKTSSRFRMMNLQGEEFVCLKSIILLNSGVYTFLPSTLKSLEEKDHIHRVLDKITDTLIHLMAKAGLTLQQQHQRLAQLLLILSHIRHMSNKGMEHLYSMKCKNVVPLYDLLLEMLDAHRLHAPTSRGGASVEETDQSHLATAGSTSSHSLQKYYITGEAEGFPATV
In the case of B2, in series [2], the “estrogen-independent expression of GREB1 (RT-qPCR, fold change relative to WT), SKBR3 cells” value worked out at 0.4 fold and the “estrogen-independent expression of PGR (RT-qPCR, fold change relative to WT), SKBR3 cells” value is 0.2 fold.

B3: WT ERα ligand-binding domain (LBD) S463P (protein)
chain: TADQMVSALLDAEPPILYSEYDPTRPFSEASMMGLLTNLADRELVHMINWAKRVPGFVDLTLHDQVHLLECAWLEILMIGLVWRSMEHPGKLLFAPNLLLDRNQGKCVEGMVEIFDMLLATSSRFRMMNLQGEEFVCLKSIILLNSGVYTFLPSTLKSLEEKDHIHRVLDKITDTLIHLMAKAGLTLQQQHQRLAQLLLILSHIRHMSNKGMEHLYSMKCKNVVPLYDLLLEMLDAH
Consider B3, for which the other: t1/2 of dimer exchange worked out at 0.883 h in series [3] (apo (no E2), parent: 7) and 3.17 h in series [3] (protein exposed to 1 μM E2 for 30 minutes before dimer exchange, parent: 101).
